Assay results as given in patent US20050282743A1, “Molecular interactions in cells” (Arbor Vita Corporation, priority 2001, published 2005).
Ends that are not written are not given here. * marks the point of attachment. Biotin = O=C1N[C@H]2[C@H](CS[C@H]2CCCCC(=O)*)N1

Legend:
Type in all cases: binding
[1] = target: T1, TIP-1 (GST-TIP-1) (Homo sapiens, UniProt O14907, I73S); assay: G assay with unlabeled 8 amino acid competitor peptide (Example 4, FIGS. 2B, 2C)
T1 construct: made in house; host or cells: E. coli DH5alpha
T1 sequence (O14907 3-123 I73S): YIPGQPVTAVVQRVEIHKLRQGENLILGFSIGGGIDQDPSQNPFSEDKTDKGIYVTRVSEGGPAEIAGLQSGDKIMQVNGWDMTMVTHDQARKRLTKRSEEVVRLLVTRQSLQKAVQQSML
Procedure: FIGS. 2A, 2B and 2C show binding and competition assays with the PDZ ligands of CD95 (Fas) and Tax for the PDZ domain of TIP-1.
Upon infection, the higher affinity of Tax could preferentially bind TIP-1 protein available in the cell, removing the TIP-1 bound to CD95 (Fas) and thereby rendering the cell less able to undergo apoptosis. In order to test this, competition experiments between Tax and CD95 for TIP-1 binding were performed using the ‘G Assay’, but adding additional unlabeled competitor peptide at step 9 of the ‘G Assay’ presented in EXAMPLE 3 section D.
FIGS. 2B and 2C show the results of these experiments. The graphs show the amount of binding of the biotinylated 20 amino acid peptide in the presence of increasing concentrations of unlabeled 8 amino acid competitor.

[2] = target: T2, PDZ protein (GST-PDZ fusion) (Homo sapiens, UniProt Q76G19); assay: G' assay (10 uM PL peptide), results of TABLE 7 and TABLE 12; conditions: PDZ LU1, PDZ Domain 1
T2 construct: made in house; host or cells: E. coli (DH5alpha, BL21 or JM109)
T2 sequence (Q76G19 1-769): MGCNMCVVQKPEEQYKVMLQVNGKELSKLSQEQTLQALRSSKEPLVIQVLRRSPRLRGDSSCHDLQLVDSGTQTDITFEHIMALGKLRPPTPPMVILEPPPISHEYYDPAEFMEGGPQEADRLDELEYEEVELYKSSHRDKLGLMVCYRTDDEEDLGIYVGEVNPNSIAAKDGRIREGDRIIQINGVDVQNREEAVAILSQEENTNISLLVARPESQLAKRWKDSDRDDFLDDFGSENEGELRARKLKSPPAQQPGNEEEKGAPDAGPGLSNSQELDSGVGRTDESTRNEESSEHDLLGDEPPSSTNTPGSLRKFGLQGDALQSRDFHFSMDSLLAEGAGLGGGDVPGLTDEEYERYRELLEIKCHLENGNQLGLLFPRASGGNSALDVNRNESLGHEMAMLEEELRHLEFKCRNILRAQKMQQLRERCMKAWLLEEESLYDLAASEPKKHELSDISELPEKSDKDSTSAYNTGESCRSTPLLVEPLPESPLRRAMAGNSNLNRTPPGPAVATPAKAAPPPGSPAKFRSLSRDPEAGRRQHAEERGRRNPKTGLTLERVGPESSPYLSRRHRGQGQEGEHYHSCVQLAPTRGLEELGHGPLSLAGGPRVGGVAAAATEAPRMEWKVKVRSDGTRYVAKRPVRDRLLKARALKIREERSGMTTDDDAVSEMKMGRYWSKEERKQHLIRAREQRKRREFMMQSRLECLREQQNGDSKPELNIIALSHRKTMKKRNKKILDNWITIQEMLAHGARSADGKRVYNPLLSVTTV
Summary of the method: (§1)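 Same steps as the G-zero format, apart from a peptide concentration of 10 uM in place of 20 uM in step 2. Amino-terminally biotinylated PL peptides bind GST-PDZ fusions, and retained peptide is quantified by 450 nm absorbance.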

[3] = target: T3, PDZ protein (GST-PDZ fusion) (Homo sapiens, UniProt Q86UR5); assay: as above; conditions: PDZ KIAA0340, PDZ Domain 1
T3 construct: made in house; host or cells: E. coli (DH5alpha, BL21 or JM109)
Summary of the method: as §1

[4] = target: T4, PDZ protein (GST-PDZ fusion) (Homo sapiens, UniProt Q9H190); assay: as above
T4 construct: made in house; host or cells: E. coli (DH5alpha, BL21 or JM109)
T4 sequence (Q9H190 1-292): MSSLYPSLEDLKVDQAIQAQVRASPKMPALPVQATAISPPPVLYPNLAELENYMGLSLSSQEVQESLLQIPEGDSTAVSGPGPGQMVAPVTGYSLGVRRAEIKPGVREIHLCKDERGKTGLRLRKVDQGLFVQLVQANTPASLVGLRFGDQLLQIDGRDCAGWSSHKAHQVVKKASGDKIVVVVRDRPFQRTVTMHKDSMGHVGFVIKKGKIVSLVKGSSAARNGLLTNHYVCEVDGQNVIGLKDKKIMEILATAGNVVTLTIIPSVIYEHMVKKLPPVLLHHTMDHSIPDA
Summary of the method: as §1

T3 sequence (Q86UR5 whole entry, the tested form may be a part): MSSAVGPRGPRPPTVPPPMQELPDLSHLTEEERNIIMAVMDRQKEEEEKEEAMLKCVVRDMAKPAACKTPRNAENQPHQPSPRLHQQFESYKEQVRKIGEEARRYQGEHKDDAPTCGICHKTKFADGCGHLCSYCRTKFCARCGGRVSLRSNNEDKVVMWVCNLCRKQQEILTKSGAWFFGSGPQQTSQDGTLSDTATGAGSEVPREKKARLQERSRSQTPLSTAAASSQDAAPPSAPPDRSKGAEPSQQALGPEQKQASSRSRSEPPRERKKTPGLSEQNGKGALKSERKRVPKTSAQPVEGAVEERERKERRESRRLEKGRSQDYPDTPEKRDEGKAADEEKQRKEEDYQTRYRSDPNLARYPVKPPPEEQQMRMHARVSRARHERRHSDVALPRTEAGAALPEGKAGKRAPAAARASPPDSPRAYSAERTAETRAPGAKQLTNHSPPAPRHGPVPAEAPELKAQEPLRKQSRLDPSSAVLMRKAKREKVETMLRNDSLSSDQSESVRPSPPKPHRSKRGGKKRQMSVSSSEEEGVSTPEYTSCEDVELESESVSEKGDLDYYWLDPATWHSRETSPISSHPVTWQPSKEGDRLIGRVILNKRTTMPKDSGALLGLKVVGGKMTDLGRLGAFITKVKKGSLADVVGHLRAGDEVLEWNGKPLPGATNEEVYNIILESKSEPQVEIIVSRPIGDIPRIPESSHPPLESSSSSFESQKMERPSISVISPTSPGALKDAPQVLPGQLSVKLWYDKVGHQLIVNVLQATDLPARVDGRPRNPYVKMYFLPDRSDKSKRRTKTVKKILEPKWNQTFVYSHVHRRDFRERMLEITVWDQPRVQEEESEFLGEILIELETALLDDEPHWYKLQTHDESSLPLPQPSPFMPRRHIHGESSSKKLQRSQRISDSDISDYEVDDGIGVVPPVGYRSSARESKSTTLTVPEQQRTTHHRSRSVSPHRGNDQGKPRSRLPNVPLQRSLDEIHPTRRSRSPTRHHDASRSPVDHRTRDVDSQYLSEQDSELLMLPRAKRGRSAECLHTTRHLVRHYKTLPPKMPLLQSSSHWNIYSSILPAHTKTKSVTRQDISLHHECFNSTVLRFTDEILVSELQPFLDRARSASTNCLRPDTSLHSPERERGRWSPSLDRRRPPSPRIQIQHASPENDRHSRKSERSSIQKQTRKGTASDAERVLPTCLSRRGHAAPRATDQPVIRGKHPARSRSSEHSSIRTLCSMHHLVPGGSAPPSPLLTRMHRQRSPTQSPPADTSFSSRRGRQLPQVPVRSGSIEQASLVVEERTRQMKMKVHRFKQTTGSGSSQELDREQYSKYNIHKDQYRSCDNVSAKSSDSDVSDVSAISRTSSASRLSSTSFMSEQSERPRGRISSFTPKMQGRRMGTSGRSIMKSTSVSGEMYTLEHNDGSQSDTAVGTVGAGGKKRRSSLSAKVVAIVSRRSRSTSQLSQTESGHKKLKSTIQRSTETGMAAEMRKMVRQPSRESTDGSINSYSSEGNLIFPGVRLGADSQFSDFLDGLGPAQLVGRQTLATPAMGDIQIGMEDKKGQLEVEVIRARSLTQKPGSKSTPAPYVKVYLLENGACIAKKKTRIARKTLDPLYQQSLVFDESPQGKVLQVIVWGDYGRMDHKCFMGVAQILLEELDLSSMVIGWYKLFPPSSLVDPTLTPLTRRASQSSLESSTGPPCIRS

## CC[C@H](C)[C@H](NC(=O)[C@H](CCC(N)=O)NC(=O)CCCC[C@@H]1SC[C@@H]2NC(=O)N[C@@H]21)C(=O)N[C@@H](CO)C(=O)N1CCC[C@H]1C(=O)NCC(=O)NCC(=O)N[C@@H](CC(C)C)C(=O)N[C@@H](CCC(=O)O)C(=O)N1CCC[C@H]1C(=O)N1CCC[C@H]1C(=O)N[C@@H](CO)C(=O)N[C@@H](CCC(=O)O)C(=O)N[C@@H](CCCCN)C(=O)N[C@@H](Cc1c[nH]cn1)C(=O)N[C@@H](Cc1ccccc1)C(=O)N[C@@H](CCCNC(=N)N)C(=O)N[C@@H](CCC(=O)O)C(=O)N[C@H](C(=O)N[C@@H](CCC(=O)O)C(=O)N[C@H](C(=O)O)C(C)C)[C@@H](C)O [Tax]
[1]; unlabeled 8 amino acid Tax competitor at 20, 100, and 500 μM, 20 μM labeled CD95 20-mer
  competition for binding to TIP-1 with labeled CD95 (FIG. 2B): able to compete
[1]; unlabeled Tax 8-mer versus labeled CD95
  excess able to compete effectively for TIP-1 binding: 5 fold

## A2AC_HUMAN (Modified) (Biotin-DFRPSFKHILFRRARRGFRQ; not fully specified)
[2]
  Classification: 4 (A450 nm 3-4)

## A2AA_HUMAN (modified) (Biotin-HDFRRAFKKILARGDRKRIV; not fully specified)
[3]
  Classification: 1 (A450 nm 0-1)
[4]; PDZ SITAC-18, PDZ Domain 1
  Classification: 4 (A450 nm 3-4)
[4]; PDZ SITAC-18, PDZ Domain 2
  Classification: 4 (A450 nm 3-4)
